Data: patent US20210371505A1 (Regeneron, published 2021)

Assays:
Test in all cases: cell-based or functional assay
[1] = target: T1, Hemagglutinin of influenza virus A/Aichi/02/1968-PR8-X31 (H3N2) (Influenza A virus …, UniProt P03437 17-566)
[2] = target: T1, Hemagglutinin of influenza virus …; remark: listed apart in the source
[3] = target: Hemagglutinin of influenza virus A/Philippines/01/1982 (H3N2) (Influenza A virus A/Philippines/01/1982 …)
[4] = target: Hemagglutinin of influenza virus A/Shanghai/01/2013-PR8 (H7N9) (Influenza A virus …)

B1: H1H14611N2 (antibody, V domains shown)
VH: EVQLVESGGGLVKPGGSLRLSCAASGFTFSGFSMNWVRQVPGKGLEWVSSISTSGNYMYYADSVKGRFTISRDNAKKSFSLQMNSLRAEDSAIYYCARGGGYNWNLFDYWGQGSLVTVSS
VL: EIVLTQSPGTLSLSPGERATLSCRASQSLNSNYLAWYQQKPGQAPRLLIYGASSRATGIPDRFSGSGSGTDFTLTITRLESEDFAVYYCQQYGNSPLTFGGGTKVEIK
- EC50, complement-dependent cytotoxicity of virus-infected MDCK cells [1]: 140 nM
- IC50 of neutralization, cell viability microneutralization assay on MDCK cells [2]: 7.83 nM
- IC50 of neutralization, cell viability microneutralization assay on MDCK cells [3]: 68.4 nM
- IC50 of neutralization, cell viability microneutralization assay on MDCK cells [4]: 405 nM
